Experimental data: paper PMC1278935, “Different Catalytic Mechanisms in Mammalian Selenocysteine- and Cysteine-Containing Methionine-R-Sulfoxide Reductases” (PLoS Biology, 2005)

System: T1, CN(C)c1ccc(N=Nc2ccc(S(=O)(=O)N[C@@H](CC[S@@+](C)[O-])C(=O)O)cc2)cc1
T1 construct: full-length mouse MsrB2, C-terminal His tag (LEHHHHHH), E. coli BL21(DE3), monomer
Test: HPLC of dabsyl-Met, Lineweaver-Burk
Assay type: biochemical, Mus musculus
Conditions: 20 mM DTT, 50 mM sodium phosphate pH 7.5, 50 mM NaCl, 37 °C, from E. coli
Source text: HPLC of dabsyl-Met, Lineweaver-Burk on MsrB2

MsrB2 (Mus musculus; H119G), sequence (chain, as listed by the source H119G): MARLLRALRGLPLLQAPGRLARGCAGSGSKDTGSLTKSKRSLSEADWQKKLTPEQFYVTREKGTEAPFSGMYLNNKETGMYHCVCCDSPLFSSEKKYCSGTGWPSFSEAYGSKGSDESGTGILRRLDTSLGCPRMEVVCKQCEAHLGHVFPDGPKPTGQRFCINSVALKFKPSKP
MsrB2 (Mus musculus), sequence (chain, as listed by the source): as the sequence (chain, as listed by the source H119G) above, with G119H counted along it
MsrB2 (Mus musculus; V149E), sequence (chain, as listed by the source V149E): as the sequence (chain, as listed by the source H119G) above, with G119H, V149E counted along it

## MsrB2 (Mus musculus)
  Km: 310 ± 100 µM
  kcat: 0.458 ± 0.0633 s⁻¹

## MsrB2 (Mus musculus; H119G)
MsrB1 numbering
  Km: 340 ± 60 µM
  kcat: 0.0083 ± 0.0017 s⁻¹

## MsrB2 (Mus musculus; V149E)
MsrB1 numbering
  Km: 140 ± 40 µM
  kcat: 0.0933 ± 0.012 s⁻¹
